Assay results reported in patent US20110182887A1 (AstraZeneca / MedImmune, published 2011).
Where a chain is given by its changes, count along the chain named. Numbers in names are those of the source.

Key:
[1] = target: T1, human CD22 (hCD22) expressed on the cell surface (human, UniProt P20273 20-847); experiment: cell ELISA on BHK cells expressing human CD22, OD 655 nm
T1 construct: whole, on cells; One molecule is used for all cell-surface formats; also called human CD22 antigen; BHK-CD22

[2] = target: T1, human CD22 (hCD22) expressed on the …; experiment: as above; remark: listed apart in the source
[3] = target: T1, human CD22 (hCD22) expressed on the …; experiment: as above; remark: listed apart in the source
[4] = target: T1, human CD22 (hCD22) expressed on the …; experiment: cell ELISA on BHK cells expressing human CD22, COS-7 supernatant, OD 655 nm
[5] = target: T1, human CD22 (hCD22) expressed on the …; experiment: as above; remark: listed apart in the source
[6] = target: T1, human CD22 (hCD22) expressed on the …; experiment: cell ELISA on BHK cells expressing human CD22, COS-7 supernatant, goat anti-human Ig-HRP, OD 450 nm
From the text: The BHK-CD22 binding assay was used to test the binding activity of the chHB227 antibody in the transiently transformed COS 7 culture supernatants. A goat anti-human Ig-HRP conjugate (Sigma Chemicals) was used to detect binding of chHB22.7 mAb while a goat anti-mouse Ig-HRP conjugate (Southern Biotechnology) was used to detect binding of the parental mouse HB22.7 mAb. The bound HRP conjugates were exposed to the substrate o-phenyldiamine (OPD) and the resulting products detected at 450 nm.

[7] = target: T1, human CD22 (hCD22) expressed on the …; experiment: cell ELISA on BHK cells expressing human CD22, COS-7 supernatant, OD 655 nm; remark: listed apart in the source
[8] = target: T1, human CD22 (hCD22) expressed on the …; experiment: cell ELISA on BHK cells expressing human CD22, RHOv2 heavy chain expressed with the RKC light chain in COS cells
[9] = target: T1, human CD22 (hCD22) expressed on the …; experiment: cell ELISA on BHK cells expressing human CD22, RHOv2A heavy chain expressed with the RKC light chain in COS cells
[10] = target: T1, human CD22 (hCD22) expressed on the …; experiment: cell ELISA on BHK cells expressing human CD22, RHOv2D heavy chain expressed with the RKC light chain in COS cells
[11] = target: T1, human CD22 (hCD22) expressed on the …; experiment: cell ELISA on BHK cells expressing human CD22, RHOv2B heavy chain expressed with the RKC light chain in COS cells
[12] = target: T1, human CD22 (hCD22) expressed on the …; experiment: cell ELISA on BHK cells expressing human CD22, RHOv2C heavy chain expressed with the RKC light chain in COS cells
[13] = target: T1, human CD22 (hCD22) expressed on the …; experiment: cell ELISA on BHK cells expressing human CD22, OD 655 nm; remark: listed apart in the source
[14] = target: hCD22 (ligand immobilised on the BIAcore CM5 sensor chip) (human, UniProt P20273 20-687, limits assumed); experiment: SPR (BIAcore 3000), hCD22 immobilised on CM5 chip, IgG injected, 1:1 model
Description: Binding affinity of HB22.7 and RHOv2ACD/RKA were determined on a BIAcore 3000 instrument (BIAcore, Inc., Uppsala, Sweden). The ligand, hCD22, was prepared at 50 nM in 10 mM NaOAc, pH4 buffer. It was injected onto an EDC/NHS-activated CM5 sensor chip (BIAcore, Inc. Uppsala, Sweden) using a standard immobilization protocol. Following this, any unreacted active ester moieties were quenched using 1M Et-NH2 (ethanolamine; coupling reagents purchased from BIAcore, Inc.). A total of 535 and 689 RUs hCD22 remained bound to two sensor chip surfaces used in these experiments. Separately, a blank surface was prepared on each sensor chip using the identical protocol (minus protein). The blank surfaces were used as a reference cell in the experiments, and served to correct for both non-specific binding and some housekeeping artifacts.
For the kinetic experiments, HB22.7 and RHOv2ACD/RKA were prepared as two dilution series, starting at 22 nM and 100 nM, then diluted three- and two-fold, respectively, down to final concentrations of 0.03 nM and 0.39 nM in HBS-EP buffer (BIAcore, Inc., consisting of the following: 10 mM HEPES buffer, pH7.4, 150 mM NaCl, 3 mM EDTA, and 0.005% P20). Each concentration of IgG was then injected over both the CD22 and reference cell surfaces, which are connected in series. Between injections, surfaces were regenerated with a 1-minute injection of 3M MgCl2.

B1: chimeric HB22.7 antibody chHB227 (chH + chL) (antibody, V domains shown)
VH: QVQLKESGPGLVAPSQSLSITCTVSGFSLSDYGVNWVRQIPGKGLEWLGIIWGDGRTDYNSALKSRLNISKDNSKSQVFLKMNSLKADDTARYYCARAPGNRAMEYWGQGTSVTVS
VL: SIVMTQTPKFLLVSAGDRITLTCKASQSVTNDVAWYQQKPGQSPKLLIYYASNRYTGVPDRFTGSGYGTDFTFTISTVQAEDLAVYFCQQDYRSPWTFGGGTKLEI
notes: Tested as COS-7 supernatant; also called CH+CK; fully chimeric antibody
Question: How did the “EC50 (read off the curve)” value [1] turn out when B1 was run?
Answer: ~0.3 µg/mL

Question: What about the “EC50 (read off the curve)” value [2] of the same binder?
Answer: ~0.3 µg/mL

Question: And the “EC50 (read off the curve)” value [3]?
Answer: ~0.3 µg/mL

Question: What about the “EC50 (read off the curve)” value [4] of the same binder?
Answer: ~0.1 µg/mL

Question: And the “EC50 (read off the curve)” value [5]?
Answer: ~0.1 µg/mL

Question: What about the “EC50 (read off the curve)” value [6] of the same binder?
Answer: ~0.1 µg/mL

B2: HB227RHB heavy chain + chimeric HB22.7 light chain (chL) (antibody, human IgG1, V domains shown)
VH: QVQLQESGPALVKPTQTLTLTCTFSGFSLSDYGVNWIRQPPGKALEWLAIIWGDGRTDYNSALKSRLSISKDTSKNQVVLRMTNVDPVDTATYFCARAPGNRAMEYWGQGTVVTVSS
VL: B1 VL
notes: Human IgG1 kappa, COS-7 supernatant; The VH entry may include the leader; also called RHB+chL
Question: Does B2 bind [7]?
Answer: binds

B3: HB227RHF heavy chain + chimeric HB22.7 light chain (chL) (antibody, human IgG1, V domains shown)
VH: B2 VH with F24V, A49G, T73N
VL: B1 VL
notes: Human IgG1 kappa, COS-7 supernatant; The VH entry may include the leader; also called HB227RHF+chL; RHF+chL
Question: Does B3 bind [4]?
Answer: binds

B4: HB227RHB + HB227RKC humanized antibody (antibody, human IgG1, V domains shown)
VH: B2 VH
VL: DIVMTQSPSSLSASVGDRVTITCKASQSVTNDVAWYQQKPGKAPKLLIYYASNRYTGVPDRFSGSGYGTDFTLTISSLQPEDFATYFCQQDYRSPWTFGGGTKVEIKR
notes: Human IgG1 kappa, COS-7 supernatant; also called RHB+RKC
Question: Does B4 bind [5]?
Answer: binds

B5: HB227RHO + HB227RKC humanized antibody (antibody, human IgG1, V domains shown)
VH: QVQLEESGGGVVRPGRSLRLSCAASGFTLSDYGVNWIRQAPGKGLEWVGIIWGDGRTDYNSALKSRLTVSRNNSNNTLSLQMNSLTTEDTAVYYCVRAPGNRAMEYWGQGVLVTVS
VL: B4 VL
notes: Human IgG1 kappa, COS-7 supernatant; also called RHO+RKC
Question: Does B5 bind [5]?
Answer: binds

B6: chH/RK (antibody, V domains shown)
VH: QVQLKESGPGLVAPSQSLSITCTVSGFSLSDYGVNWVRQIPGKGLEWLGIIWGDGRTDYNSALKSRLNISKDNSKSQVFLKMNSLKADDTARYYCARAPGNRAMEYWGQGTSVTVSS
VL: B4 VL
notes: also called chH+RKC; chimeric HB22.7 heavy chain (chH) + HB227RKC light chain
Question: For B6, which “EC50 (read off the curve)” value [5] is on record?
Answer: ~0.2 µg/mL

B7: HB227RHOv2 + HB227RKC humanized antibody (antibody, human IgG1, V domains shown)
VH: B5 VH
VL: B4 VL
notes: Human IgG1 kappa, COS-7 supernatant; Carries all four VH back mutations: F29L, D30S, T49G, F67L; also called RHOv2+RKC
Question: Does B7 bind [8]?
Answer: binds

B8: HB227RHC + HB227RKC humanized antibody (antibody, human IgG1, V domains shown)
VH: B2 VH with A49G, T73N
VL: B4 VL
notes: Human IgG1 kappa, COS-7 supernatant; also called RHC+RKC
Question: Does B8 bind [5]?
Answer: binds

B9: HB227RHOv2A + HB227RKC humanized antibody (antibody, human IgG1, V domains shown)
VH: B5 VH with L29F
VL: B4 VL
notes: RHOv2 with the F29L back mutation removed; Human IgG1 kappa, COS-7 supernatant; also called HB227v2A
Question: Does B9 bind [9]?
Answer: binds

B10: HB227RHOv2D + HB227RKC humanized antibody (antibody, human IgG1, V domains shown)
VH: B5 VH with L67F
VL: B4 VL
notes: RHOv2 with the F67L back mutation removed; Human IgG1 kappa, COS-7 supernatant; also called HB227v2D
Question: Does B10 bind [10]?
Answer: binds

B11: HB227RHOv2B + HB227RKC humanized antibody (antibody, human IgG1, V domains shown)
VH: B5 VH with S30D
VL: B4 VL
notes: RHOv2 with the D30S back mutation removed; Human IgG1 kappa, COS-7 supernatant; also called HB227v2B
Question: Does B11 bind [11]?
Answer: binds

B12: HB227RHOv2C + HB227RKC humanized antibody (antibody, human IgG1, V domains shown)
VH: B5 VH with G49T
VL: B4 VL
notes: RHOv2 with the T49G back mutation removed; Human IgG1 kappa, COS-7 supernatant; also called HB227v2C
Question: Does B12 bind [12]?
Answer: binds

B13: HB227RHOv2ABCD + HB227RKC humanized antibody (antibody, human IgG1, V domains shown)
VH: B5 VH with L29F, S30D, G49T, L67F
VL: B4 VL
notes: No VH back mutations; Human IgG1 kappa, COS-7 supernatant; also called RHOv2ABCD+RKC
Question: Does B13 bind [13]?
Answer: binds

B14: humanized anti-hCD22 antibody RHOv2ACD/RKA (HB227RHOv2ACD VH + HB227RKA VK) (antibody, human IgG1, V domains shown)
VH: B5 VH with L29F, G49T, L67F
VL: B4 VL with D60S, Y67S, F87Y
notes: Human IgG1 kappa expression vectors; It was labelled with Alexa-fluor in some cell assays; also called RHOvACD/RKA; RHOACD/RKA
Question: Which Kd [14] does the source give for B14 here?
Answer: 22 nM

Question: What about the koff [14] of the same binder?
Answer: 0.00069 s⁻¹

Question: What about the kon [14] of the same binder?
Answer: 32000 M⁻¹ s⁻¹

B15: HB227RHOv2ACD + HB227RKC humanized antibody (antibody, human IgG1, V domains shown)
VH: B5 VH with L29F, G49T, L67F
VL: B4 VL
notes: Human IgG1 kappa, COS-7 supernatant; also called RHOv2ACD+RKC
Question: Does B15 bind [3]?
Answer: binds

B16: HB227RHF + HB227RKC humanized antibody (antibody, human IgG1, V domains shown)
VH: B2 VH with F24V, A49G, T73N
VL: B4 VL
notes: Human IgG1 kappa, COS-7 supernatant; also called RHF+RKC; humanized (RHF+RKC) antibody
Question: Which “EC50 (read off the curve)” value [4] does the source give for B16 here?
Answer: ~0.2 µg/mL
